The nature of data set [1]: SEC-SAXS structural parameters. It is filed as physicochemical. As to conditions: for Rg (Guinier approximation): 20 mM Tris-HCl pH 7.5, 150 mM NaCl, 1 mM TCEP, 3% glycerol. As to the method: SAXS data were collected on the European Molecular Biology Laboratory (EMBL) P12 beamline, at the storage ring PETRA III (Deutsches Elektronen Synchrotron (DESY), Hamburg, Germany). The SEC-SAXS measurements were conducted in a buffer containing 20 mM Tris-HCl (pH 7.5), 150 mM NaCl, 1 mM TCEP, 3% (w/v) glycerol using Superdex 200 Increase 5/150 GL column (GE Healthcare) at the flow rate 0.5 ml.min^−1 at 293.15 K.
The loading concentrations of the samples were 2.2 mg.ml^−1 for Nedd4-2^186–975, 2 mg.ml^−1 for 14-3-3η and 8.9 mg.ml^−1 for the Nedd4-2^186–975:14-3-3η complex (1:2 molar stoichiometry). The injection volume of the samples was 52 μl. Elution profiles with the corresponding frames were processed using ATSAS 3.0.2 software CHROMIXS[71]. ATSAS software PRIMUS and GNOM were used to determine the excluded volume of the hydrated particle (Vp), the radius of gyration (Rg) and maximum particle dimension (Dmax)[72],[73]. The molecular mass (MW) was determined using a methods described by Rambo et al.[74]. Scattering profiles, P(r) functions, normalized Kratky plots and Guinier approximations were visualized using GraphPad Prism version 8.0.1 for Windows (GraphPad Software, La Jolla California USA, www.graphpad.com). The program DAMMIF was used to calculate the ab inicio molecular envelopes. For the complex, 10 surfaces were generated in slow mode and averaged using DAMAVER[76]. The averaged surfaces were used as the final filtered model of the complex, which was superimposed to the structural model using the SUPCOMB program (EMBL, Hamburg, Germany)[77].
In general terms: SEC sorts molecules by how far they enter the pores of the column.

Data set [2] has as its target T1, 14-3-3η (Homo sapiens, UniProt Q04917).
T1 sequence (Q04917 1-246): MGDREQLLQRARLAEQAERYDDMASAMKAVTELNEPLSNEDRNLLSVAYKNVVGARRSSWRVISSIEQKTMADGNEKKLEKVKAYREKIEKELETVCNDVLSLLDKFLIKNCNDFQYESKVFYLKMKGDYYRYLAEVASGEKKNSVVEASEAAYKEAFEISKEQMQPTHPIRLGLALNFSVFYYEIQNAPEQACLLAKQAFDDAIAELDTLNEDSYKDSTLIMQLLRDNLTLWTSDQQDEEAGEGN
The data set is described as follows: native TBE-PAGE complex formation with 14-3-3η. It is filed as binding. Conditions: 12% native TBE-PAGE, 240 pmol 14-3-3η and 120 pmol Nedd4-2 variant. As to the method: Based on our estimates, the KD value was lower than 50 nM, as further confirmed by global modeling. TEXT PRINTED IN THE PICTURE: (d) no label printed: KD < 50 nM
Fig. 3 Simultaneous phosphorylation of two 14-3-3 binding motifs pSer342 and pSer448 is required for tight complex formation between pNedd4-2^335–455 and 14-3-3η. a 12% Native TBE-PAGE showing the interaction between 14-3-3η (240 pmol) and Nedd^335–455 variants without (no pS) or with one, two or three phosphorylation sites (120 pmol); 14-3-3η protein alone was loaded on the penultimate lane. b–i Sedimentation velocity analytical ultracentrifugation analysis of the complexes between 14-3-3η and pNedd4-2^335–455 variants showing the sw isotherms of 14-3-3η and Nedd4-2 with all three phosphorylation sites pSer^342 + pThr^367 + pSer^448 (b), with no phosphorylation sites (c), with one phosphorylation site (pSer^342 (d), pThr^367 (e) and pSer^448 (f)), or with two phosphorylation sites (pSer^342 + pThr^367 (g), pSer^342 + pSer^448 (h) and pThr^367 + pSer^448 (i)). […] The c(s) distributions underlying the sw data points are shown in Supplementary Fig. S3.

The target of data set [3] is T1, 14-3-3η. Description: SV-AUC (sedimentation velocity analytical ultracentrifugation), sw isotherm binding analysis. Conditions: 300 nM pNedd4-2^186–975 with 0.06−6 μM 14-3-3η, A + B ⇌ AB (Langmuir) model, one pNedd4-2 per 14-3-3η dimer, 50 mM Tris-HCl pH 8.0, 500 mM NaCl, 1 mM TCEP, 0.01% Tergitol NP-40, 20 °C, read-out: apparent KD. Here is the method:
Solution properties of Nedd4-2^186–975 and its interactions with 14-3-3 were characterized by sedimentation velocity analytical ultracentrifugation (SV AUC).
Sedimentation velocity (SV) experiments were performed using a ProteomLab^TM XL-I, Beckman Coulter analytical ultracentrifuge. The samples were dialyzed against a buffer containing 20 mM Tris-HCl (pH 7.5), 150 mM NaCl, and 1 mM TCEP before analysis. The samples with the longer construct of Nedd4-2^186–975 were dialyzed against a buffer containing 50 mM Tris-HCl (pH 8.0), 500 mM NaCl, 1 mM TCEP and 0.01% (v/v) Tergitol NP-40 (Sigma). […] The buffer density, viscosity, and partial specific volume of all proteins were estimated using the program […]. All sedimentation profiles were collected with absorbance optics at 280 nm. The sedimentation coefficients c(s) distributions were calculated from raw data using the SEDFIT software package. The calculated distributions were integrated to establish the weight-average sedimentation coefficients corrected to 20 °C and the density of water, sw(20,w). […] The resulting isotherms were fitted with a A + B ⇌ AB model, as implemented in the SEDPHAT software package with previously known sw values of each component. The parameters were verified, and the loading concentrations were corrected using global Lamm-equation modeling, also implemented in the SEDPHAT software[66]

The nature of data set [4]: SV-AUC continuous sedimentation coefficient distributions c(s). Type of data set: physicochemical. As to the method:
Sedimentation velocity (SV) experiments were performed using a ProteomLab^TM XL-I, Beckman Coulter analytical ultracentrifuge. The samples were dialyzed against a buffer containing 20 mM Tris-HCl (pH 7.5), 150 mM NaCl, and 1 mM TCEP before analysis. The samples with the longer construct of Nedd4-2^186–975 were dialyzed against a buffer containing 50 mM Tris-HCl (pH 8.0), 500 mM NaCl, 1 mM TCEP and 0.01% (v/v) Tergitol NP-40 (Sigma). […] The buffer density, viscosity, and partial specific volume of all proteins were estimated using the program […]. All sedimentation profiles were collected with absorbance optics at 280 nm. The sedimentation coefficients c(s) distributions were calculated from raw data using the SEDFIT software package. The calculated distributions were integrated to establish the weight-average sedimentation coefficients corrected to 20 °C and the density of water, sw(20,w). The sw values were plotted as a function of Nedd4-2^355–455 or 14-3-3η concentration to construct sw isotherms. The resulting isotherms were fitted with a A + B ⇌ AB model, as implemented in the SEDPHAT software package with previously known sw values of each component. The parameters were verified, and the loading concentrations were corrected using global Lamm-equation modeling, also implemented in the SEDPHAT software[66]

The test system of data set [5] is all human 14-3-3 protein isoforms. Description: native TBE-PAGE isoform binding specificity. Conditions: 12% TBE-PAGE, 128 pmol 14-3-3 and 64 pmol pNedd4-2^335–455. Here is the method:
In addition, we prepared pNedd4-2^335–455 to characterize 14-3-3 isoform binding specificity.
Supplementary Fig. S2. Characterization of the interaction between Nedd4-2 and 14-3-3 in solution. a Continuous sedimentation coefficient distributions (c(s)) of 10 μM pNedd4- […]
mixed at 1:2 (cyan) and 1:1 (green) molar ratios. The protein concentrations were 10 μM for 14335-455 335-455-3-3ε and 5 μM or 10 μM for pNedd4335-455 -2 . b Isoform binding specificity of pNedd4-2 .
Phosphorylated pNedd4-2 , 14-3-3 proteins and their complexes were separated by 12% TBE-PAGE to study the interaction of pNedd4-2335-455 with all seven human 14-3-3 isoforms (β, γ, ε, δ, ε, σ, and τ). The amounts of protein loaded on the native gel were 128 pmol of 14335-455 -3-3 and […]
(1 picture or pasted object on this page, not shown here)

Setting [6] is: frames from the right side of the elution peak.
Where [7] appears, read: frames from the top of the elution peak.

B1: Nedd4-2^186–975: N-terminally truncated human Nedd4-2, missing the C2 domain (protein)
chain: HQEELPPPPLPPGWEEKVDNLGRTYYVNHNNRTTQWHRPSLMDVSSESDNNIRQINQEAAHRRFRSRRHISEDLEPEPSEGGDVPEPWETISEEVNIAGDSLGLALPPPPASPGSRTSPQELSEELSRRLQITPDSNGEQFSSLIQREPSSRLRSCSVTDAVAEQGHLPPPSAPAGRARSSTVTGGEEPTPSVAYVHTTPGLPSGWEERKDAKGRTYYVNHNNRTTTWTRPIMQLAEDGASGSATNSNNHLIEPQIRRPRSLSSPTVTLSAPLEGAKDSPVRRAVKDTLSNPQSPQPSPYNSPKPQHKVTQSFLPPGWEMRIAPNGRPFFIDHNTKTTTWEDPRLKFPVHMRSKTSLNPNDLGPLPPGWEERIHLDGRTFYIDHNSKITQWEDPRLQNPAITGPAVPYSREFKQKYDYFRKKLKKPADIPNRFEMKLHRNNIFEESYRRIMSVKRPDVLKARLWIEFESEKGLDYGGVAREWFFLLSKEMFNPYYGLFEYSATDNYTLQINPNSGLCNEDHLSYFTFIGRVAGLAVFHGKLLDGFFIRPFYKMMLGKQITLNDMESVDSEYYNSLKWILENDPTELDLMFCIDEENFGQTYQVDLKPNGSEIMVTNENKREYIDLVIQWRFVNRVQKQMNAFLEGFTELLPIDLIKIFDENELELLMCGLGDVDVNDWRQHSIYKNGYCPNHPVIQWFWKAVLLMDAEKRIRLLQFVTGTSRVPMNGFAELYGSNGPQLFTIEQWGSPEKLPRAHTCFNRLDLPPYETFEDLREKLLMAVENAQGFEGVD
modifications: phosphoserine at 342, phosphothreonine at 367, phosphoserine at 448 (PKA in vitro, confirmed by LC-MS); left off: His6, C-terminal, kept
notes: N-terminally truncated human Nedd4-2, missing the C2 domain
Regarding B1, in data set [1] (setting [6]), the Dmax is listed as 16.9 nm, the “Rg (GNOM)” value is recorded as 4.54 ± 0.02 nm, the “VP (Porod volume)” value is 192 nm^3 and the “Rg (Guinier approximation)” value was found to be 4.39 ± 0.02 nm. Besides, in data set [1] (setting [7]), the Dmax was determined as 18.3 nm, the “Rg (GNOM)” value is 4.92 ± 0.01 nm, the “VP (Porod volume)” value amounted to 218 nm^3 and the “Rg (Guinier approximation)” value is 4.67 ± 0.01 nm. Also, in data set [1] (from P(r) functions), the “maximum particle dimension Dmax” value is reported as 169 Å. For the same molecule, the “complex formation on native TBE-PAGE” value in the data set with 14-3-3η [2] is on record as “phosphorylation-dependent interaction”. For the same molecule, in the data set with 14-3-3η [3], the Kd is about 50 nM.

B2: pNedd4-2^335–455: shorter Nedd4-2 variant missing both the C2 and the HECT domains, all three phosphorylation sites (protein)
chain: SSRLRSCSVTDAVAEQGHLPPPSAPAGRARSSTVTGGEEPTPSVAYVHTTPGLPSGWEERKDAKGRTYYVNHNNRTTTWTRPIMQLAEDGASGSATNSNNHLIEPQIRRPRSLSSPTVTLS
modifications: phosphoserine at 342, phosphothreonine at 367, phosphoserine at 448; left off: His6, N-terminal, cleaved | GB1 domain of protein G, N-terminal, cleaved
notes: shorter Nedd4-2 variant missing both the C2 and the HECT domains, all three phosphorylation sites
For B2, the f/f0 in data set [4] (SV-AUC c(s) analysis) turned out to be 1.5. In data set [4] (corrected to 20.0 °C and density of water), this molecule came in with a weight-averaged sedimentation coefficient sw(20,w), unit not given of 1.4 S. In addition, the “complex formation on native TBE-PAGE, all isoforms” value in data set [5] was “forms stable complexes”.

The record behind these values is PMC8298602, “14-3-3-protein regulates Nedd4-2 by modulating interactions between HECT and WW domains” (Communications Biology, 2021).
